In paper PMC6349404:

These substances were tested against recombinant human Osteolectin (human) (UniProt Q9Y240) (assay: ELISA; microtiter well binding assay; plates coated with 10 nM recombinant human Osteolectin, Pro-Collagen 1α or BSA overnight at 4°C, blocked with 10 mg/ml BSA; 6xHis tagged integrins in TBS (50 mM Tris-Cl pH 7.5, 150 mM NaCl) with 1 mM MnCl2; bound integrin detected with anti-His tag antibody and HRP secondary, OD 450 nm).
recombinant human Osteolectin (human), sequence (Q9Y240 22-323): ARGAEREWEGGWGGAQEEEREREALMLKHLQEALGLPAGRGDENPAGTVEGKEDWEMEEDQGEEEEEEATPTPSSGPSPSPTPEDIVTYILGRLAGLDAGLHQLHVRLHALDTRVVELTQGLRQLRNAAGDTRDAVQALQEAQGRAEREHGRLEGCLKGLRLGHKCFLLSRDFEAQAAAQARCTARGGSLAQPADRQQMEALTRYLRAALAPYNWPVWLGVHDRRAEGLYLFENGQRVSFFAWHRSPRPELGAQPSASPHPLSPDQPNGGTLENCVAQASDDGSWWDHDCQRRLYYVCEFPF

Substance	Kd
recombinant human integrin αVβ3 (from UniProt P06756 31-1048; P05106 27-718) (complex)	> 100 nM
recombinant human integrin αVβ1 (from UniProt P06756 31-1048; P05556 21-728) (complex)	> 100 nM
recombinant human integrin αIIbβ3 (from UniProt P08514 32-1039; P05106 27-718) (complex)	> 100 nM
